Changes are numbered by the printed parent chain. Numbers in names are those of the source.
T1: Human TROP2 full length, on tumor cells (HCT116, MDAMB231, NCI-H292) (human, UniProt P09758 31-323)
T1 sequence: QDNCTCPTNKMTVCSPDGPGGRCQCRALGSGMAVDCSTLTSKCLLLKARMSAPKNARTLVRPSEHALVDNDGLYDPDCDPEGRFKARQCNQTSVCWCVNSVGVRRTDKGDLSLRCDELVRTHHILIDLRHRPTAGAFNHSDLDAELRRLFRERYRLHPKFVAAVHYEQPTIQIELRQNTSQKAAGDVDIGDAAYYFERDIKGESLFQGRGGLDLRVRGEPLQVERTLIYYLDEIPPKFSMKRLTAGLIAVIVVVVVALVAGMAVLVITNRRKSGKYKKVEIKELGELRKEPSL

T2: Cynomolgus monkey TROP2 full length, on recombinant HEK293 cells (cynomolgus monkey, UniProt P09758 31-323 (human entry))
T2 chain: T1 sequence with M32V, S63N, I200V, M262V, T268S

T3: Cyno CD3 (Antigen was biotinylated for capture on neutravidin plates; the site of biotin and any tag are not stated.)
T3 construct: also called cynomolgus monkey CD3
T3 chain: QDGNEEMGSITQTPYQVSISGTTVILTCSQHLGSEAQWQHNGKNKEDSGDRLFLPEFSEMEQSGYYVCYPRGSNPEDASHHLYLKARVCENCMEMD

T4: Human TROP2 ECD (31-274 AA), biotinylated (human, UniProt P09758 31-274, biotinylated (site not stated))
T4 construct: the entry is already residues 31-274; also called Human TROP2-biotin; hTROP2-Biotin
T4 sequence: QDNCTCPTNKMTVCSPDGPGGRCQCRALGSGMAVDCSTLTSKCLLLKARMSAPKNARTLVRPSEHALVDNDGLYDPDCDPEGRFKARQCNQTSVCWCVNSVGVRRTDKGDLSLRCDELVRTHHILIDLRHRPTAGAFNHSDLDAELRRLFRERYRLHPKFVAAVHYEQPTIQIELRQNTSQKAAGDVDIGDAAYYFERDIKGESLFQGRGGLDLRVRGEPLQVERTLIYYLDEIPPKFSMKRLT

B1: TCE-1 (TROP2 Fab x SP34.185 scFv, non-mutated, scFv on the Fab HC) (bispecific antibody)
light: DIQLTQSPSSLSASVGDRVSITCKASQDVSIAVAWYQQKPGKAPKLLIYSASYRYTGVPDRFSGSGSGTDFTLTISSLQPEDFAVYYCQQHYITPLTFGAGTKVEIKRTVAAPSVFIFPPSDEQLKSGTASVVCLLNNFYPREAKVQWKVDNALQSGNSQESVTEQDSKDSTYSLSSTLTLSKADYEKHKVYACEVTHQGLSSPVTKSFNRGEC
heavy: not shown
B2: TCE-6 (TROP2 Fab HC R98A TCE, scFv on the Fab HC) (bispecific antibody)
light: B1 light
heavy: not shown
B3: TCE-8 (TROP2 Fab HC D109A TCE, scFv on the Fab HC) (bispecific antibody)
light: B1 light
heavy: not shown
B4: TCE-2 (TROP2 Fab x SP34.185 scFv, non-mutated, scFv on the Fab LC) (bispecific antibody)
light: not shown
heavy: QVQLQQSGSELKKPGASVKVSCKASGYTFTNYGMNWVKQAPGQGLKWMGWINTYTGEPTYTDDFKGRFAFSLDTSVSTAYLQISSLKADDTAVYFCARGGFGSSYWYFDVWGQGSLVTVSSASTKGPSVFPLAPSSKSTSGGTAALGCLVKDYFPEPVTVSWNSGALTSGVHTFPAVLQSSGLYSLSSVVTVPSSSLGTQTYICNVNHKPSNTKVDKKVEPKSC
B5: TCE-5 (TROP2 Fab HC D109A TCE, scFv on the Fab LC) (bispecific antibody)
light: not shown
heavy: B4 heavy with D109A
B6: TCE-3 (TROP2 Fab HC R98A TCE, scFv on the Fab LC) (bispecific antibody)
light: not shown
heavy: B4 heavy with R98A
B7: TCE-27 (anti-CD3 scFv W233A, anti-TROP2 wt) (bispecific antibody)
light: B1 light
heavy: not shown
B8: TCE-32 (anti-CD3 scFv W238A, anti-TROP2 wt) (bispecific antibody)
light: B1 light
heavy: not shown
B9: TCE-35 (anti-CD3 scFv with P41S, A49G, N87S, L150F, T151S, G163R, P175A, K181T, T200V, A202D, L208I, G211N, L217I, S218T, V220A, P222A, E223D, A226S, E227D; … (bispecific antibody)
light: B1 light
heavy: EVQLVESGGGLVQPGGSLKLSCAASGFTFNKYAMNWVRQASGKGLEWVGRIRSKYNNYATYYADSVKDRFTISRDDSKNTAYLQMNSLKTEDTAVYYCVRHGNFGNSYISYWAYWGQGTLVTVSSGGGGSGGGGSGGGGSQTVVTQEPSFSVSPGGTVTLTCRSSTGAVTSGNYANWVQQTPGQAPRGLIGGTKFLAPGVPDRFSGSILGNKAALTITGAQADDESDYYCVLWYSNRWVFGGGTKLTVLGGGGSQVQLQQSGSELKKPGASVKVSCKASGYTFTNYGMNWVKQAPGQGLKWMGWINTYTGEPTYTDDFKGRFAFSLDTSVSTAYLQISSLKADDTAVYFCARGGFGSSYWYFDVWGQGSLVTVSSASTKGPSVFPLAPSSKSTSGGTAALGCLVKDYFPEPVTVSWNSGALTSGVHTFPAVLQSSGLYSLSSVVTVPSSSLGTQTYICNVNHKPSNTKVDKKVEPKSC
B10: TCE-36 (anti-CD3 scFv with N30Q, I109V, G172A, V231A; anti-TROP2 wt) (bispecific antibody)
light: B1 light
heavy: not shown
B11: TCE-37 (anti-CD3 scFv wt, anti-TROP2 HC F108A) (bispecific antibody)
light: B1 light
heavy: not shown
B12: TCE-43 (anti-CD3 scFv wt, anti-TROP2 HC D109A) (bispecific antibody)
light: B1 light
heavy: not shown
B13: TCE-46 (bispecific antibody)
light chain (anti-TROP2 LC wt): B1 light
heavy chain (anti-CD3 scFv F240A + linker + anti-TROP2 D109A HC): not shown
notes: also called anti-CD3 scFv (F240A) + linker + anti-TROP2 (D109A) HC; anti-TROP2 LC wt
B14: TCE-42 (anti-CD3 scFv with N30Q, I109V, G172A, V231A; anti-TROP2 HC F108A) (bispecific antibody)
light: B1 light
heavy: not shown
B15: TCE-30 (anti-CD3 scFv N236A, anti-TROP2 wt) (bispecific antibody)
light: B1 light
heavy: not shown
B16: TCE-25 (anti-CD3 scFv V231A, anti-TROP2 wt) (bispecific antibody)
light: B1 light
heavy: not shown
B17: TCE-28 (anti-CD3 scFv Y234A, anti-TROP2 wt) (bispecific antibody)
light: B1 light
heavy: not shown
B18: TCE-26 (anti-CD3 scFv L232A, anti-TROP2 wt) (bispecific antibody)
light: B1 light
heavy: not shown
B19: TCE-29 (anti-CD3 scFv S235A, anti-TROP2 wt) (bispecific antibody)
light: B1 light
heavy: not shown
B20: TCE-31 (anti-CD3 scFv R237A, anti-TROP2 wt) (bispecific antibody)
light: B1 light
heavy: not shown
B21: TCE-33 (anti-CD3 scFv V239A, anti-TROP2 wt) (bispecific antibody)
light: B1 light
heavy: not shown
B22: TCE-22 (anti-CD3 scFv Y111A, anti-TROP2 wt) (bispecific antibody)
light: B1 light
heavy: not shown
B23: TCE-38 (anti-CD3 scFv H101A, anti-TROP2 HC F108A) (bispecific antibody)
light: B1 light
heavy: not shown

target: T1, Human TROP2 full length, on tumor cells …; test: cell-based or functional assay

Binder | TCE Cytotoxicity EC50, H292 + CD8+ T cells | TCE Cytotoxicity EC50, HCT116 + CD8+ T cells | TCE Cytotoxicity EC50, MDAMB231 + CD8+ T cells
B1 | 1.3 pM | 28.6 pM | 12 pM
B2 | 6.3 pM | 142 pM | 77.2 pM
B3 | 4 pM | 83 pM | 26 pM
B4 | – | 1.6 pM | 1.2 pM
B5 | 0.2 pM | 5.8 pM | 2.6 pM
B6 | 0.4 pM | 22 pM | 7.7 pM

target: T1, Human TROP2 full length, on tumor cells …; test: cell-based or functional assay; remark: another data set of the same source

Binder | H292 Cytotox EC50
B7 | > 1000 pM
B8 | > 1000 pM

target: T1, Human TROP2 full length, on tumor cells …; test: cell-based or functional assay; remark: another data set of the same source

Binder | H292 Cytotox EC50
B9 | 0.5 pM
B10 | 2.1 pM

target: T1, Human TROP2 full length, on tumor cells …; test: cell-based or functional assay; remark: another data set of the same source

Binder | HCT116 Cytotox EC50
B11 | 109 pM

target: T1, Human TROP2 full length, on tumor cells …; test: cell-based or functional assay; remark: another data set of the same source

Binder | H292 Cytotox EC50
B12 | 1 pM
B11 | 5 pM

Target: T2, Cynomolgus monkey TROP2 full length, on …
Test: cell-based or functional assay

Binder | CynoTROP2 + HEK293 cells Cytotox EC50
B12 | 0.1 pM
B11 | 0.2 pM

target: T5, human CD3 epsilon, biotinylated (human, UniProt P07766 23-126, limits assumed, biotinylated (site not stated)); test: CD3 binding ELISA
T5 construct: Printed in places as CD36, CD38, CD3c or CD3&; also called CD3e-bio; human CD3e-biotin
T5 sequence (P07766 23-126 limits assumed): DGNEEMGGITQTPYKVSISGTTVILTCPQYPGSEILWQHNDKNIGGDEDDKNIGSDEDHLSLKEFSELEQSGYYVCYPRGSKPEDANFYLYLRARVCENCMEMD

EC50 | Binder
1100 pM | B13

Target: T3, Cyno CD3
Test: Cyno CD3 binding ELISA

EC50 | Binder
354 pM | B14
184 pM | B11

target: T5, human CD3 epsilon, biotinylated; test: BLI, CD3e-biotin on sensor (summary)

CD3 Octet response | CD3 t1/2 | Kd | Binder
0.65 | 2.45 min | – | B15
– | 2.96 min | 6260 pM | B16
0.67 | 1.66 min | 11100 pM | B17
0.66 | 2.64 min | 8390 pM | B18
– | 6.45 min | 12300 pM | B7
0.68 | 3.64 min | 3410 pM | B19
0.73 | 2.67 min | 6510 pM | B20
0.74 | 4.26 min | – | B21
0.07 | – | 31000 pM | B8

target: T5, human CD3 epsilon, biotinylated; test: BLI, CD3e-biotin on sensor, 50 nM TCE

Response | Kd | Binder
0.65 | – | B15
– | 6260 pM | B16
0.674 | 11100 pM | B17
0.663 | 8390 pM | B18
0.414 | 12300 pM | B7
0.931 | 9110 pM | B10
0.682 | 3410 pM | B19
-0.0009 | – | B22
0.728 | 6510 pM | B20
0.742 | – | B21
0.0683 | 31000 pM | B8

target: T4, Human TROP2 ECD (31-274 AA), …; test: TROP2 binding ELISA, biotinylated TROP2 on neutravidin plates

EC50 | Binder
1070 pM | B12
1280 pM | B23
1150 pM | B11

Source: patent US20250154278A1 (JANUX THERAPEUTICS, published 2025)
